Data published in PMC3937304, “The Secreted Triose Phosphate Isomerase of Brugia malayi Is Required to Sustain Microfilaria Production In Vivo” (PLoS Pathogens, 2014).

Tested on: O=C(CO)COP(=O)(O)O
Test: purified protein
Details: DHAP to G3P direction, 100 mM TEA-HCl pH 7.6, 1 mM EDTA, 1 mM NAD+, 5 mM disodium hydrogen arsenate, 25 °C, 0.16-10 mM DHAP

Row | Substance | Km [µM]
1 | recombinant Bm-TPI (Brugia malayi) | 1800
2 | recombinant Ls-TPI (Litomosoides sigmodontis) | 1933
